Assays:
[1] = target: human FcRn/b2M (human) (UniProt P61769); test: SPR pH 7.4
[2] = target: human FcRn/b2M (human) (UniProt P61769); test: SPR; pH 7.4 vs pH 6.0
[3] = target: human FcRn/b2M (human) (UniProt P61769); test: SPR pH 6.0

human FcRn/b2M (human), sequence (chain, as listed by the source limits assumed, chain 1 of 2): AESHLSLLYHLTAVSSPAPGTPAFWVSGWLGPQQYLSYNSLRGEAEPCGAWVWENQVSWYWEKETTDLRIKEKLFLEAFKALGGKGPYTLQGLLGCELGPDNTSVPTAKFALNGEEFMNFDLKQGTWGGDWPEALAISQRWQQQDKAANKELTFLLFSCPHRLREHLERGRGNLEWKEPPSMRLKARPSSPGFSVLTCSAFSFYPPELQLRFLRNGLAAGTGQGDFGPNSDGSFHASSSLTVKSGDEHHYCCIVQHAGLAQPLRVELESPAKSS
human FcRn/b2M (human), sequence (P61769 21-119 limits assumed, chain 2 of 2): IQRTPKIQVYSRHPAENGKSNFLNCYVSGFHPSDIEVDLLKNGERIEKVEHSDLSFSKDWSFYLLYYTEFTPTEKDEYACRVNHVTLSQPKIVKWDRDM

B1: T0263018B11 bivalent (VHH, part only; not given: linker, not shown: small tags and cut ends)
chain, part: EVQLVESGGGVVQPGGSLRLSCAASGFTFSSYAMYWVRQAPGKGLEWVSAISSGGGSTDYADSVKGRFTISRDNSKNTLYLQMNSLRPEDTALYYCAADTLYTSLTWYSYWGQGTLVTVSSEVQLVESGGGVVQPGGSLRLSCAASGFTFSSYAMYWVRQAPGKGLEWVSAISSGGGSTDYADSVKGRFTISRDNSKNTLYLQMNSLRPEDTALYYCAADTLYTSLTWYSYWGQGTLVTVSS
Question: Which Kd [1] does the source give for B1 here?
Answer: 1000 nM

Question: And the KD ratio pH 7.4/6.0 [2]?
Answer: 54

Question: What about the Kd [3] of the same binder?
Answer: 19 nM
